Consider one molecule from US20240197738A1 (UNIVERSITY OF NORTH CAROLINA AT CHAPEL HILL, published 2024).

For experiment [1], the target named is T1, EWSR1 (wild type) (UniProt Q01844 1-656, limits assumed).
T1 construct: also called EWSR1-WT; HA-EWSR1
T1 sequence (looked up): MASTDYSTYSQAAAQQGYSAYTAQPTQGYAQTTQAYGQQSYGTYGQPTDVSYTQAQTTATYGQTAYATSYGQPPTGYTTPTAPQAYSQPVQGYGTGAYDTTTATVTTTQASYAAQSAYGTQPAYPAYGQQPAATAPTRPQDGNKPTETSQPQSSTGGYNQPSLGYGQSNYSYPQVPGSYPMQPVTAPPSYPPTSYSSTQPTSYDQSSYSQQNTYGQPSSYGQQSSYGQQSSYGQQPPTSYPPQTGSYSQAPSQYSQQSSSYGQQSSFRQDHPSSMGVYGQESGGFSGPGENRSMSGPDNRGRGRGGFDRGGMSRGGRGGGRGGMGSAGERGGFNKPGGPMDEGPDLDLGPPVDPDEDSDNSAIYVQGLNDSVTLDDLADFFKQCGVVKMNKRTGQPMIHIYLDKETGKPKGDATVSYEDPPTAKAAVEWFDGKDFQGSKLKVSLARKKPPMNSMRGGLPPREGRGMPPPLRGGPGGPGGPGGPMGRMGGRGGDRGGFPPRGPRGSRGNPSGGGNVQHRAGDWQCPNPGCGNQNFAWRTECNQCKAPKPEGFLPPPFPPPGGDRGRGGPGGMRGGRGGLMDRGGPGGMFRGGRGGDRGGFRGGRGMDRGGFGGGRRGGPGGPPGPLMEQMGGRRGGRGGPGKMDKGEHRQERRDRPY
Description: binding assay in cells; method not described, data not shown.

The target in experiment [2] is T2, CUL3 (wild type) (UniProt Q13618 1-768).
T2 construct: also called WT-CUL3; cullin 3
T2 sequence (Q13618 whole entry): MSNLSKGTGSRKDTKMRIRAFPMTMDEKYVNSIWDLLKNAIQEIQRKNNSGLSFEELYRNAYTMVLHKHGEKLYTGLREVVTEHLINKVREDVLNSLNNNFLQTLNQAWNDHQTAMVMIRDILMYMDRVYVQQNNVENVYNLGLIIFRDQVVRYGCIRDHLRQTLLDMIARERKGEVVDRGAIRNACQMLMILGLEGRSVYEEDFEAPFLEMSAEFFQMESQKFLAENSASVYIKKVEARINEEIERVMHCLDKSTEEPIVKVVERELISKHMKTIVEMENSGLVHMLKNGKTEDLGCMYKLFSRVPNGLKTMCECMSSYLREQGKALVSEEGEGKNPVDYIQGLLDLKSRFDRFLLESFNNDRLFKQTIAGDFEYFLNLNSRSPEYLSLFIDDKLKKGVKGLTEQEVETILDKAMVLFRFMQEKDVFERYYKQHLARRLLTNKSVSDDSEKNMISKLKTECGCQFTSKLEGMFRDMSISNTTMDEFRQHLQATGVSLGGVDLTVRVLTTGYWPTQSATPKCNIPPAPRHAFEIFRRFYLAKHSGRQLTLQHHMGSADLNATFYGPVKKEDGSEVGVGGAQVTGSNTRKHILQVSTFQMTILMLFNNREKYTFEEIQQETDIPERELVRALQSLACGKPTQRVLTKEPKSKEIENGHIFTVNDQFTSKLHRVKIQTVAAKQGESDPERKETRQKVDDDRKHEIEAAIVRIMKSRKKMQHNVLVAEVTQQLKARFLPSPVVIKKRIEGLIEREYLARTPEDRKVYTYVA
Description: binding assay in cells; method not described.

Experiment [3] has as its target T3, CUL3-E358Q (UniProt Q13618 1-768).
T3 construct: also called E358Q-CUL3
Description: binding assay in cells; method not described.

T3 sequence (Q13618 whole entry E358Q): as the sequence (Q13618 whole entry) above, with E358Q counted along it

B1: SPOP (other, human, UniProt O43791 1-374, looked up)
chain: MSRVPSPPPPAEMSSGPVAESWCYTQIKVVKFSYMWTINNFSFCREEMGEVIKSSTFSSGANDKLKWCLRVNPKGLDEESKDYLSLYLLLVSCPKSEVRAKFKFSILNAKGEETKAMESQRAYRFVQGKDWGFKKFIRRDFLLDEANGLLPDDKLTLFCEVSVVQDSVNISGQNTMNMVKVPECRLADELGGLWENSRFTDCCLCVAGQEFQAHKAILAARSPVFSAMFEHEMEESKKNRVEINDVEPEVFKEMMCFIYTGKAPNLDKMADDLLAAADKYALERLKVMCEDALCSNLSVENAAEILILADLHSADQLKTQAVDFINYHASDVLETSGWKSMVVSHPHLVAEAYRSLASAQCPFLGPPRKRLKQS
notes: Exogenous SPOP carried a GST, Flag or HA tag; endogenous SPOP was also used; also called GST-SPOP; Flag-SPOP
As to B1, the binding result in experiment [1] is reported as “no binding”; in experiment [2] it was “binds”; in experiment [3] it was “binds”.
